From the DeepSol protein solubility set

assay: soluble on expression in E. coli; label from the status in PepcDB or PDB records

Sequence | soluble on expression in E. coli
MGSDKIHHHHHHMSSICQGTWDCQNCPKAVDNAIAHIIHPRGYHQPARKCEENFILFLIRGEVLVNSQEYAGTMLRAGEFILQAIGSKFEMLAMTECECIYYRFIQPELFCDFRFNHIMKEVSSPLIYSPLKIIPELKYFLDGSKSYLSESKVCRDLLSLKRKELAFVLGYYYSDYDLASLVHPLSKYTSTFQYFILQNYKKVKTVEELAQLGGYTVSTLRRIFNNVFHEPVYEWMQARRKEGILDELLNTNNSISEICYKYGFESLPHFSNFCKKFFGASPRMLRTNKKTI | not soluble
GQEPENQTLETILNRKSVRKYKDRPVEKEKIDKLIRAGMAAPSSRDRRPWEFIIVTDRKALDTMAEGLPFARMLKETRQAIVVCGDTIKSSNAWFLDCSAASQNLLLAAESMGLGAVWTAVYPYPDRIEIVRKELRLPDHIMPLNVIPVGYPMQKETPKNKYNVQQIHHNGW | soluble
MLKHLLPLGTRDEFGRRARTKQHLIAVIQAHFKQRGLAPIATPLLENEAVFDPYQMGNYQLYRLFGNDGRTLVLRPDMTLPVARFISATNVPLPQKFGYVGDIFRVSRQLSGSYNQITQAGVELVGYASLKAEFECLTIANQLSSELIADAVEIELGDAQFAQRVVASLTGDEGEQQAILTALFDKQVPRYTKLIAKYRAQPLYDFLKAWPRLFGRPECIFKELAAAPLPETVQPSLKRLQTVVAWMQQTMPEQVISVDLSSQAPQKYYTGLTFRGYSQAGAGYLFSGGRYDKLLTNFQAEAEPAVGMGLNVDLLTTLATDQQTAYAEQLIYFEPEQWSQAEAYLAKQPHAILSLADDLAGARIEAQRLNAQLIDLTGGMTND | not soluble
MAHHHHHHMRGKGHKRLAARSFQQWQKLHYNALCDRQMPTPLHATLRLPVRRVAHQPSSCPSAPASVDMQLTTNSSAVLQWWQREYDPFLLGCDASAHRTAGPTPPATTATHVLASTRVSAHVGPPAPPLGYPDYIAIEATQHTEGVLRGETYAYHHAAAVGAVPAPPPGAAYPSPVKWIQQPLLDGFVAQRLTAHIGVTTGSLLDTRRTAMALGRQLPPVELSPFYAASALLDRWCLFGEAAAVVPSMPASSGATLDGTQQSQRPHDAAAHHLRIAELALGAGLLSNYRAVWLNGAVLSHPGTARSVLVVGPRRSGKTTLALHCLSAAAMQASSSASGDGGVRLTAAEHFFLAAGMPVRRMLDPASTRLTSPTIFACSLPHHITVGLGAVLGTLRPNPGLAAAVELPSFLQCEAGLRACLRNTDGVLWDMSKTYRVRLEDIYRASSPDISTQWAPVVVNTLAGVVLLDWNVEELASASPTPVRNAVREIPLHDGGVEELLKRAQDYMFHGHHLLRTVYDAPQDAPARLADALADEWDTAQPRSLANGTAPALHCIEGSVNFDLATQLIMSLLSERA | not soluble
MDADKDNIKQACDERSAEMDDMRGEQSMGLVHEIMSENKELDEEIKKLEAELQSDAREFQIKENVPEKKLKLTSVESPEDGCHFSNSSCSFQVSSQILYELQKGQALITFEKEEVAQNVISMGNHVVQMEGTPVKVSAHPVPLNTGVRFQVHVDISKMKINVTGIPDELSEEQTRDKLELSFCKSRNGGGEVESVDYDRKSRSAVITFVETGVVDKILKKKTYPLYMNQKCHSVAVSPCIERRLEKYQVFSAVSKKTVLLTGLEGIRVDEETGEDLLNIHFQRKNNGGGEVEVVKCSLDQSFAAYFKEEARETI | not soluble
MGSDKIHHHHHHMFYRPEDGHGLPHNPFNAVVTPRPIGWISTRSGAGVNNLAPYSFFNAVAYVPPQVMFASTSTKDDQDGTKDSIANIRETGVFCVNVVEYAMRDAMNKTSAALDKGIDEFAHAGLEAVPCETIDCARVAGVPAALECRLTQIVDLPGEANKVAFGEVVGVHLRDDCLVDGVFDVTRYQPLSRLGYRDYAKVSDPFSLSRPDD | not soluble
MGSDKIHHHHHHMEIIAGYRTTSDSRYIALIKADGNNAGKIFGNTVTFSEYVDKSFRLDFGVKKMFYDTLLDIMRASSDESIKKDLVSRILLGVLYLGGDDIMLLSPSAIAVPFAVKMFKRSLEYTGFTFKVGIISVKPDHPVQFAYGAVNALMEESKIHTGEKSSIGVLVFSSTLASEGVVKSDLKNYRKEKESFLVVSNDVDDVERLLNLMELDDFGKLMELYWNPEEGRKVIRDKIRSLERFVNYADTHDFYNTLAYLIRSKAKSEENSLIKRIIDLTIKGRDDFVFPLYDYYFILKSIRVGI | not soluble
MGSDKIHHHHHHMFRTVALTGATGFIGRVLIAKLAASGWKVRALARRVPFRQDLPLVEWICGDMNCDSVLCDLVSGTEAVIHCAGAIRGKSWDDFSRTNVTGTRNILRAASGAPSCSRFLFISSLAAREPHLSWYARSKFEAEQLIPGFSGLASTVFRPAAVYGLGDKAMQPFFQAMRYGILLVPGDPGNRFGLIHVDDMVAAIHNWLEAGQPVKGTYEIDDGTSGGYDYTSIAALAEQVLSRPVHCLQIPLGGIRMLARFNLWLAHLLNYAPILTPGKVMEFQHPDWTCDISSLKRELAGWSPVTKLETVLPLLVRM | not soluble
MAHHHHHHMGTLEAQTQGPGSMSGDRDDPRYPYPKDDAELRRRLTPMQYEVTQHAATEPPFTGEYTDTEDAGIYHCVVCGTALFESGAKYHSGCGWPSYFKPIDGEVIDEKMDYTHGMTRVEVRCNQCGAHLGHVFEDGPRDKTGLRYCINSAALNFEAKPERK | soluble
MAHMNLLSVTTGDGGLSRYLEEVRRFPMLEPQEEYMLAQRYRKHNDLKAAHKLVTSHLRLVAKIAVGYRGYGLPIGEVISEGNVGLMKAVKRFEPERGFRLATYAIWWIKASIQEYVLRSWSLVKMGTTANQKRLFFNLRKLKSRLQALDNGDLNAEQVKEIAIQLNVTEDEVVSMNRRLGGDTSLNAPLRTKEGENSEWQDWLVDDSNNQEQTLIEQNELENRRSMLTNALDNLNEREKRIFKARRLSDIPLTLEELSSEFNISRERVRQIEMRAFEKIQNSIKASALSQNQV | not soluble
MPQLSIIIPLFNSCNFISRALQSCINQTLKDIEILIIDDKSKDNSLNMVLEFAKKDPRIKIFQNEENLGTFASRNLGVLHSSSDFIMFLDSDDFLTLDACKIALKEMKKGFDLLCFDAFVHRVKTKQFYRFKQDEFFNQKEFLEFLSKQRHFCWSVWAKCFRKDIILKSFEKIKIDERLSYGEDVLFCYVYFMFCEKIAVFKTCIYHYEFNPNGRYENKNKEILWQNYQDKKKSNELVKKLCLNFKNNDFHKKLFEVLEKEEFDLQRRVDEARNLEHHHHHH | soluble
IVGGKVCPKGECPWQVLLLVNGAQLCGGTLINTIWVVSAAHCFDKIKNWRNLIAVLGEHDLSEHDGDEQSRRVAQVIIPSTYVPGTTNHDIALLRLHQPVVLTDHVVPLCLPERTFSERTLAFVRFSLVSGWGQLLDRGATALELMVLNVPRLMTQDCLQQSRKVGDSPNITEYMFCAGYSDGSKDSCKGDSGGPHATHYRGTWYLTGIVSWGQGCATVGHFGVYTRVSQYIEWLQKLMRSEPRPGVLLRAPFP | soluble
MKLRRSMLFVPGSNAAMLSNSFIYKPDSIMFDLEDAVALKEKDSARLLVAHALQHPLYKEIETVVRVNPLDSEFGLLDLNSVVRAGVDVVRMPKTESAQDVLDMDHAITEIEKACGREAGSTKMLAAIESPLGITQANQIAFASKRLIGIALGAEDYVRNLKTERSPEGIELLFARCSILQAARAAGIQAFDTVYSNANNEEGFLKEAALIKQLGFDGKSLINPRQIELLHNLFAPTQKDVEQAKRIIEAAVEAERQGAGVVSLNGKMIDAPIIDRAKLVLERAKSGIREELEHHHHHH | soluble
MSRGLLEACIEFIRETPAGDALRIVAYEFTFKRILLELKAALERGVDVRIVYHATTANEKAIADAKLPENSKGVQILFKRTRPQTPHNKFIVRLKKGKTPVSVWTGSTNFTPSGFLGQTNVGHKVTDGDIAKIYLQLWEGLKADPDDFDATQLEHHHHHH | not soluble
EHEICAGETGVPLATDTIMLSRQVSFDRIRLLSGVSNDELQLLNPQYKRGIIPGNTQLCRLRLPVASIKKLDKVRDSLYSPDLEASVSDFPEQGGQHSGGSGRTAIFHNVKQGETLLSIAKRYGTTVAAIKRANGLKSSSVKPGQRLQITKSSASGTKKKSKYSAKRKSRRRK | not soluble
MKKAKKEKKEKIIKPDGPINFNRSIMAAFEKQSRGKICPLCETKFSLASYKSHMNTCNVADDDEEIEVIATYTRDEAILMRAGPEIILGDASFSDKSENPTKRRKTDEREVPSEDDIVPEVPGPSGIVKNHEMPSESLDVTEISENIEKVIKKSPEWINHRRRSSRLLQNSQKDQADNANKEDPVKKETATISEVLQAIERFEQRVSGPEQTWPYYIKITIKIMKRVISTEKFDGTFYADDFWLPSDIITFYRFVELLSEGAKCLLVRLFIRKPAWYNLEKLEQKYPEIPNIKEAVSELAKGHFIDDDSSMKTLDEALQISDVVALKNVTKKFKLDGTKNRQELIQSLRKFAQSQQSIFGGTGNVEKSILKSLKQELGPCVRVRGGFVDLFKCLFTIYCPVTTNSANVIDNPSTTNVYQDLLYLMLSVANGTVQFPAPNPCPIIASFYKNRNMLQDYMISKSLEIAIVSQMSNGNLDAALDLAIDAKEFIEQMSDDDKRYYESLEIHERKFTSIWVFTRCCGHASSILERQKKYGMAVEWQKDLLITNKDIQSYCIDSRGIWWDRMLLNLDSHLKEKKECAKMIQIALQDPSILEKELLMIQDRALKLKEMPADFVTPINIGNPEKKTITANVITKSLGDGRINRFMIRDHETDDDVECSVEEVTRRHYLENEGFSTGVHDEGSTWHTLFGLFFYDVIFATDESVESTWLSELQDCPSDLSNTLYSKRKEKFEDRFVWLEEAEQELIEENIRKIWDLKHNETNRECSWKQFPMGAEDCVSFFQCIPRPALILILRRLAENYRNSRSGFPDLTLWNPETKRVAVVEVKGPGDRLSTKQRLWLAIFADSGIRAEVCHVAAQNSRLLV | not soluble
MGSDKIHHHHHHMKKLICISLYEDLSMTTYDLSKVDNAELIGIVENASEGTLFVFTCDRPNGSSVIMCPGGGFLKTNLENEGIDFAEWFTKLGITYIVFKYRMPHGNPDVPEQDTRLALKVVREKFPEFCDKLGVMGASIGGYLATFSATLLPDDEKPDFQILMYPVVSVDDRLTHFPCRERMFGHSYSPDKMEQYSPIEHITSGTPAAFIVAAADDAVVSPLNGIMYAARLQKADIPISLHIYPAGGHGFGYNDSFVYKQEWLQELGEWLAKL | not soluble
MSLGEWKDELIHNADKFDFPIFTPYYELTDEQRRTLWEGNQYFHGINDFFKMLEENQYKIQYRVMLARYRGKTICPKCHGTRLKPEAGYVRVDGKSISELVDLPITELKEFFDHLNLNEHDSNVARRILIEINSRIRFLIDVGLGYLTLNRLSNSLSGGESQRINLATSLGSSLVGSLYILDEPSIGLHSRDTDRLIRVLRQLQELGNTVVVVEHDEEIIRAADYIIDIGPNAGRLGGEVVYQGDMKDLKKGSNSHTVRYLLGEEEIPVPEHRRPWNNYIELTGARENNLKGVNVKFPLNVMTVVTGVSGSGKSTLVRDIFYRALKRELDECSDRPGEFSSISGSLRDLRNIEFVDQNPIGKSSRSNPVTYIKAYDEIRKLWAEQPLAKQMGYTAGHFSFNSEGGRCEECKGEGTITVEMQFMADLVLECESCHGKRFKADTLEVKFQDKNIYDVLEMTVNQAVEFFTEHGQKKIVKRLLPLQDVGLGYIKLGQSSSTLSGGENQRVKLAFYLSQEKADPTLFIFDEPTTGLHFHDIRKLLDAFDALIRRGHSIVIIEHNMDVIKCADYVIDLGPEGGDKGGNIVAVGTPEEVAACGASYTGQFLKEKLAEGHHHHHH | not soluble
GACEQNEDWVVNEPMQSFEENPEYAPLNTIPDWVSEKVTPKEYELWRTMSSRYEINYSFLKKDISEKRKKEIYDCINNICERIEKGQINKYEGFLNIADEDGTTLSDSQYFGRIATRSPEGGAEYKTNGCTLYTHSLGPYIKAAVTYKKSDDDVTITSSSVYTGSPYLGNDPSFSGASSVSYDKDKKLIAASCSGTLSFKDGSRKVEVTVQKTGFMIP | soluble
